Residue numbers refer to the chain shown, from its start.
Assays:
Test in all cases: yeast two-hybrid
yeast two-hybrid = biological target: the molecule itself
GIP130c = biological target: T1, GIP130c (human, UniProt Q4L180 1-1128)
T1 construct: Full length; tested as GAL4 domain fusion in yeast two-hybrid
T1 sequence: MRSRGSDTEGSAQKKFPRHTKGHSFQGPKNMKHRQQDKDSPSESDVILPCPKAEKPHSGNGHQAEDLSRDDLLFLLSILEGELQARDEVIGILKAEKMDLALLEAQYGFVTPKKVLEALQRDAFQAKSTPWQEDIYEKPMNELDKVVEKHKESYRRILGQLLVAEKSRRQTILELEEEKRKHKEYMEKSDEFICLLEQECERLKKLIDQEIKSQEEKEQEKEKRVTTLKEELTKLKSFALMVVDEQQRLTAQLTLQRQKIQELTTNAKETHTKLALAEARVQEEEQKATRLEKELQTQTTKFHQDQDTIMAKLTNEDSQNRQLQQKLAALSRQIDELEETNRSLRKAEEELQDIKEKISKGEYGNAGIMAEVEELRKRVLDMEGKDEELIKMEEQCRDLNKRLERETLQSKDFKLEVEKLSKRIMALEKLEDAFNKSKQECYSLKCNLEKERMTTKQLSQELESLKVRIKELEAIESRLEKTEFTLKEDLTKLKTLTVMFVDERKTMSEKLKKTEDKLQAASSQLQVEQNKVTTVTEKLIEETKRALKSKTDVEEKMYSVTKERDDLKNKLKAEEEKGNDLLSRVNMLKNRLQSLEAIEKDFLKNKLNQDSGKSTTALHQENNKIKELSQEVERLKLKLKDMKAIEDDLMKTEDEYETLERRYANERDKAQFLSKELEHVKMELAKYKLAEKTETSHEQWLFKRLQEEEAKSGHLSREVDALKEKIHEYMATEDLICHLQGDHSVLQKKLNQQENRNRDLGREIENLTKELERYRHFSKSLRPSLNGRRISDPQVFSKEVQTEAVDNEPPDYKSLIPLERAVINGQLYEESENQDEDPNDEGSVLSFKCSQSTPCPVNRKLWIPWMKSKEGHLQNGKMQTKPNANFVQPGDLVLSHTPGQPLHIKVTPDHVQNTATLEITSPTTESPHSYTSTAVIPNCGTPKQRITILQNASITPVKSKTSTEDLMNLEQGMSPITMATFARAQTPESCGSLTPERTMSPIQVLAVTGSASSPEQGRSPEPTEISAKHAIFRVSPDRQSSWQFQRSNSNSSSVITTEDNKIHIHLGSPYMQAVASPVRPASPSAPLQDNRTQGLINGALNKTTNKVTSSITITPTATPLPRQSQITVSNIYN

GIP130a = biological target: T2, GIP130a (human, UniProt Q4L180 1-1135)
T2 construct: Full length; tested as GAL4 domain fusion in yeast two-hybrid
T2 sequence: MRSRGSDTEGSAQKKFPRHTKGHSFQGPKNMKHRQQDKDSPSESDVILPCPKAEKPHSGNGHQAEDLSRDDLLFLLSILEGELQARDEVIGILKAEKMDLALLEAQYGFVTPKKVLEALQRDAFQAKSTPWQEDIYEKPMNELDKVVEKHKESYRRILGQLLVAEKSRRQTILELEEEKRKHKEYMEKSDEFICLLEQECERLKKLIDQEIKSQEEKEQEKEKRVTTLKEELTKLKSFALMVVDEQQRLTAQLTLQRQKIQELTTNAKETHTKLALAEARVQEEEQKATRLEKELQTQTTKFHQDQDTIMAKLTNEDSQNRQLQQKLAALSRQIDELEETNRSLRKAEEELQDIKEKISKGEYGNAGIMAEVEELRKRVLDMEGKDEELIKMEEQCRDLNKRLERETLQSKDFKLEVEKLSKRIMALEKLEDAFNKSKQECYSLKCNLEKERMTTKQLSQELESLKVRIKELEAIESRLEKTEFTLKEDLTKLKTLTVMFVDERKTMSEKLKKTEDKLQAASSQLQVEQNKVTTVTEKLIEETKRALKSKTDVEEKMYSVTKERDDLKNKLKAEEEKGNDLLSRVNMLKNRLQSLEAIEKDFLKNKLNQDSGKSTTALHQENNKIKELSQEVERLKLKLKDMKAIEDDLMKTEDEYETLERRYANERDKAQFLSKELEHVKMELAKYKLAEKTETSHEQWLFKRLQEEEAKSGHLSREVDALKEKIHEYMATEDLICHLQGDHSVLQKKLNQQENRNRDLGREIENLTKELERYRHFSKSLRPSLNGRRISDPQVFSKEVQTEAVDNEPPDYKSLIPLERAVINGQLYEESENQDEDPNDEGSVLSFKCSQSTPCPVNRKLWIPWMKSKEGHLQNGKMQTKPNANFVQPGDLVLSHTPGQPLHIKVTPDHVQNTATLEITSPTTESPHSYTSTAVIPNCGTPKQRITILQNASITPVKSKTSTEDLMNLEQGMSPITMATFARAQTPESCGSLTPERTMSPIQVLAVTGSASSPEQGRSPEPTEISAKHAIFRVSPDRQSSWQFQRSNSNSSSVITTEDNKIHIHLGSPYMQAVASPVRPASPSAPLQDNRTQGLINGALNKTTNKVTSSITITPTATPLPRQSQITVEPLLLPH

GIP130b = biological target: T3, GIP130b (human, UniProt Q4L180 1-1128)
T3 construct: Full length; tested as GAL4 domain fusion in yeast two-hybrid
T3 sequence: T1 sequence with R168H

Measured: binding result

B1: GIP90 (GPBP interacting protein 90 kDa) (other)
chain: MRSRGSDTEGSAQKKFPRHTKGHSFQGPKNMKHRQQDKDSPSESDVILPCPKAEKPHSGNGHQAEDLSRDDLLFLLSILEGELQARDEVIGILKAEKMDLALLEAQYGFVTPKKVLEALQRDAFQAKSTPWQEDIYEKPMNELDKVVEKHKESYRRILGQLLVAEKSRRQTILELEEEKRKHKEYMEKSDEFICLLEQECERLKKLIDQEIKSQEEKEQEKEKRVTTLKEELTKLKSFALMVVDEQQRLTAQLTLQRQKIQELTTNAKETHTKLALAEARVQEEEQKATRLEKELQTQTTKFHQDQDTIMAKLTNEDSQNRQLQQKLAALSRQIDELEETNRSLRKAEEELQDIKEKISKGEYGNAGIMAEVEELRKRVLDMEGKDEELIKMEEQCRDLNKRLERETLQSKDFKLEVEKLSKRIMALEKLEDAFNKSKQECYSLKCNLEKERMTTKQLSQELESLKVRIKELEAIESRLEKTEFTLKEDLTKLKTLTVMFVDERKTMSEKLKKTEDKLQAASSQLQVEQNKVTTVTEKLIEETKRALKSKTDVEEKMYSVTKERDDLKNKLKAEEEKGNDLLSRVNMLKNRLQSLEAIEKDFLKNKLNQDSGKSTTALHQENNKIKELSQEVERLKLKLKDMKAIEDDLMKTEDEYETLERRYANERDKAQFLSKELEHVKMELAKYKLAEKTETSHEQWLFKRLQEEEAKSGHLSREVDALKEKIHEYMATEDLICHLQGDHSVLQKKTKSTRKQEQRFRKRD
notes: Full length; tested as GAL4 domain fusion in yeast two-hybrid/three-hybrid; fusion parts are not written as pieces
binds: yeast two-hybrid | GIP130c | GIP130a | GIP130b
